Assay results: patent US20090099029A1, “Methods and substrates for conducting assays” (Invitrogen Corporation, priority 2005, published 2009)

B1: ROCK2 (protein)
chain: MSRPPPTGKMPGAPETAPGDGAGASRQRKLEALIRDPRSPINVESLLDGLNSLVLDLDFPALRKNKNIDNFLNRYEKIVKKIRGLQMKAEDYDVVKVIGRGAFGEVQLVRHKASQKVYAMKLLSKFEMIKRSDSAFFWEERDIMAFANSPWVVQLFYAFQDDRYLYMVMEYMPGGDLVNLMSNYDVPEKWAKFYTAEVVLALDAIHSMGLIHRDVKPDNMLLDKHGHLKLADFGTCMKMDETGMVHCDTAVGTPDYISPEVLKSQGGDGFYGRECDWWSVGVFLYEMLVGDTPFYADSLVGTYSKIMDHKNSLCFPEDAEISKHAKNLICAFLTDREVRLGRNGVEEIRQHPFFKNDQWHWDNIRETAAPVVPELSSDIDSSNFDDIEDDKGDVETFPIPKAFVGNQLPFIGFTYYRENLLLSDSPSCRETDSIQSRKNEESQEIQKKLYTLEEHLSNEMQAKEELEQKCKSVNTRLEKTAKELEEEITLRKSVESALRQLEREKALLQHKNAEYQRKADHEADKKRNLENDVNSLKDQLEDLKKRNQNSQI
modifications: left off: a dimerising Fc or GST
B2: PRKCZ (protein)
chain: MPSRTGPKMEGSGGRVRLKAHYGGDIFITSVDAATTFEELCEEVRDMCRLHQQHPLTLKWVDSEGDPCTVSSQMELEEAFRLARQCRDEGLIIHVFPSTPEQPGLPCPGEDKSIYRRGARRWRKLYRANGHLFQAKRFNRRAYCGQCSERIWGLARQGYRCINCKLLVHKRCHGLVPLTCRKHMDSVMPSQEPPVDDKNEDADLPSEETDGIAYISSSRKHDSIKDDSEDLKPVIDGMDGIKISQGLGLQDFDLIRVIGRGSYAKVLLVRLKKNDQIYAMKVVKKELVHDDEDIDWVQTEKHVFEQASSNPFLVGLHSCFQTTSRLFLVIEYVNGGDLMFHMQRQRKLPEEHARFYAAEICIALNFLHERGIIYRDLKLDNVLLDADGHIKLTDYGMCKEGLGPGDTTSTFCGTPNYIAPEILRGEEYGFSVDWWALGVLMFEMMAGRSPFDIITDNPDMNTEDYLFQVILEKPIRIPRFLSVKASHVLKGFLNKDPKERLGCRPQTGFSDIKSHAFFRSIDWDLLEKKQALPPFQPQITDDYGLDNFDTQFTSEPVQLTPDDEDAIKRIDQSEFEGFEYINPLLLSTEESV
B3: PRKD2(PKD2) (protein)
chain: MATAPSYPAGLPGSPGPGSPPPPGGLELQSPPPLLPQIPAPGSGVSFHIQIGLTREFVLLPAASELAHVKQLACSIVDQKFPECGFYGLYDKILLFKHDPTSANLLQLVRSSGDIQEGDLVEVVLSASATFEDFQIRPHALTVHSYRAPAFCDHCGEMLFGLVRQGLKCDGCGLNYHKRCAFSIPNNCSGARKRRLSSTSLASGHSVRLGTSESLPCTAEELSRSTTELLPRRPPSSSSSSSASSYTGRPIELDKMLLSKVKVPHTFLIHSYTRPTVCQACKKLLKGLFRQGLQCKDCKFNCHKRCATRVPNDCLGEALINGDVPMEEATDFSEADKSALMDESEDSGVIPGSHSENALHASEEEEGEGGKAQSSLGYIPLMRVVQSVRHTTRKSSTTLREGWVVHYSNKDTLRKRHYWRLDCKCITLFQNNTTNRYYKEIPLSEILTVESAQNFSLVPPGTNPHCFEIVTANATYFVGEMPGGTPGGPSGQGAEAARGWETAIRQALMPVILQDAPSAPGHAPHRQASLSISVSNSQIQENVDIATVYQIFPDEVLGSGQFGVVYGGKHRKTGRDVAVKVIDKLRFPTKQESQLRNEVAILQSLRHPGIVNLECMFETPEKVFVVMEKLHGDMLEMILSSEKGRLPERLTKFLITQILVALRHLHFKNIVHCDLKPENVLLASADPFPQVKLCDFGFARIIGEKSFRRSVVGTPAYLAPEVLLNQGYNRSLDMWSVGVIMYVSLSGTFPFNEDEDINDQIQNAAFMYPASPWSHISAGAIDLINNLLQVKMRKRYSVDKSLSHPWLQEYQTWLDLRELEGKMGERYITHESDDARWEQFAAEHPLPGSGLPTDRDLGGACPPQDHDMQGLAERISVL
modifications: left off: a dimerising Fc or GST
B4: PRKX (protein)
chain: MEAPGLAQAAAAESDSRKVAEETPDGAPALCPSPEALSPEPPVYSLQDFDTLATVGTGTFGRVHLVKEKTAKHFFALKVMSIPDVIRLKQEQHVHNEKSVLKEVSHPFLIRLFWTWHDERFLYMLMEYVPGGELFSYLRNRGRFSSTTGLFYSAEIICAIEYLHSKEIVYRDLKPENILLDRDGHIKLTDFGFAKKLVDRTWTLCGTPEYLAPEVIQSKGHGRAVDWWALGILIFEMLSGFPPFFDDNPFGIYQKILAGKIDFPRHLDFHVKDLIKKLLVVDRTRRLGNMKNGANDVKHHRWFRSVDWEAVPQRKLKPPIVPKIAGDGDTSNFETYPENDWDTAAPVPQKDLEIFKNF
modifications: left off: a dimerising Fc or GST
B5: PRKD1(PKD) (protein)
chain: MSAPPVLRPPSPLLPVAAAAAAAAAALVPGSGPGPAPFLAPVAAPVGGISFHLQIGLSREPVLLLQDSSGDYSLAHVREMACSIVDQKFPECGFYGMYDKILLFRHDPTSENILQLVKAASDIQEGDLIEVVLSASATFEDFQIRPHALFVHSYRAPAFCDHCGEMLWGLVRQGLKCEGCGLNYHKRCAFKIPNNCSGVRRRRLSNVSLTGVSTIRTSSAELSTSAPDEPLLQKSPSESFIGREKRSNSQSYIGRPIHLDKILMSKVKVPHTFVIHSYTRPTVCQYCKKLLKGLFRQGLQCKDCRFNCHKRCAPKVPNNCLGEVTINGDLLSPGAESDVVMEEGSDDNDSERNSGLMDDMEEAMVQDAEMAMAECQNDSGEMQDPDPDHEDANRTISPSTSNNIPLMRVVQSVKHTKRKSSTVMKEGWMVHYTSKDTLRKRHYWRLDSKCITLFQNDTGSRYYKEIPLSEILSLEPVKTSALIPNGANPHCFEITTANVVYYVGENVVNPSSPSPNNSVLTSGVGADVARMWEIAIQHALMPVIPKGSSVGTGTNLHRDISVSISVSNCQIQENVDISTVYQIFPDEVLGSGQFGIVYGGKHRKTGRDVAIKIIDKLRFPTKQESQLRNEVAILQNLHHPGVVNLECMFETPERVFVVMEKLHGDMLEMILSSEKGRLPEHITKFLITQILVALRHLHFKNIVHCDLKPENVLLASADPFPQVKLCDFGFARIIGEKSFRRSVVGTPAYLAPEVLRNKGYNRSLDMWSVGVIIYVSLSGTFPFNEDEDIHDQIQNAAFMYPPNPWKEISHEAIDLINNLLQVKMRKRYSVDKTLSHPWLQDYQTWLDLRELECKIGERYITHESDDLRWEKYAGEQGLQYPTHLINPSASHSDTPETEETEMKALGERVSIL
modifications: left off: a dimerising Fc or GST
B6: ROCK1 (protein)
chain: MSTGDSFETRFEKMDNLLRDPKSEVNSDCLLDGLDALVYDLDFPALRKNKNIDNFLSRYKDTINKIRDLRMKAEDYEVVKVIGRGAFGEVQLVRHKSTRKVYAMKLLSKFEMIKRSDSAFFWEERDIMAFANSPWVVQLFYAFQDDRYLYMVMEYMPGGDLVNLMSNYDVPEKWARFYTAEVVLALDAIHSMGFIHRDVKPDNMLLDKSGHLKLADFGTCMKMNKEGMVRCDTAVGTPDYISPEVLKSQGGDGYYGRECDWWSVGVFLYEMLVGDTPFYADSLVGTYSKIMNHKNSLTFPDDNDISKEAKNLICAFLTDREVRLGRNGVEEIKRHLFFKNDQWAWETLRDTVAPVVPDLSSDIDTSNFDDLEEDKGEEETFPIPKAFVGNQLPFVGFTYYSNRRYLSSANPNDNRTSSNADKSLQESLQKTIYKLEEQLHNEMQLKDEMEQKCRTSNIKLDKIMKELDEEGNQRRNLESTVSQIEKEKMLLQHRINEYQRKAEQENEKRRNVENEVSTLKDQLEDLKKVSQNSQL
modifications: left off: a dimerising Fc or GST
B7: EPHB3 (protein)
chain: CLRKQRHGSDSEYTEKLQQYIAPGMKVYIDPFTYEDPNEAVREFAKEIDVSCVKIEEVIGAGEFGEVCRGRLKQPGRREVFVAIKTLKVGYTERQRRDFLSEASIMGQFDHPNIIRLEGVVTKSRPVMILTEFMENCALDSFLRLNDGQFTVIQLVGMLRGIAAGMKYLSEMNYVHRDLAARNILVNSNLVCKVSDFGLSRFLEDDPSDPTYTSSLGGKIPIRWTAPEAIAYRKFTSASDVWSYGIVMWEVMSYGERPYWDMSNQDVINAVEQDYRLPPPMDCPTALHQLMLDCWVRDRNLRPKFSQIVNTLDKLIRNAASLKVIASAQSGMSQPLLDRTVPDYTTFTTVGDWLDAIKMGRYKESFVSAGFASFDLVAQMTAEDLLRIGVTLAGHQKKILSSIQDMRLQMNQTLPVQV
modifications: left off: a dimerising Fc or GST
B8: PRKCN(PKD3) (protein)
chain: MSANNSPPSAQKSVLPTAIPAVLPAASPCSSPKTGLSARLSNGSFSAPSLTNSRGSVHTVSFLLQIGLTRESVTIEAQELSLSAVKDLVCSIVYQKFPECGFFGMYDKILLFRHDMNSENILQLITSADEIHEGDLVEVVLSALATVEDFQIRPHTLYVHSYKAPTFCDYCGEMLWGLVRQGLKCEGCGLNYHKRCAFKIPNNCSGVRKRRLSNVSLPGPGLSVPRPLQPEYVALPSEESHVHQEPSKRIPSWSGRPIWMEKMVMCRVKVPHTFAVHSYTRPTICQYCKRLLKGLFRQGMQCKDCKFNCHKRCASKVPRDCLGEVTFNGEPSSLGTDTDIPMDIDNNDINSDSSRGLDDTEEPSPPEDKMFFLDPSDLDVERDEEAVKTISPSTSNNIPLMRVVQSIKHTKRKSSTMVKEGWMVHYTSRDNLRKRHYWRLDSKCLTLFQNESGSKYYKEIPLSEILRISSPRDFTNISQGSNPHCFEIITDTMVYFVGENNGDSSHNPVLAATGVGLDVAQSWEKAIRQALMPVTPQASVCTSPGQGKDHKDLSTSISVSNCQIQENVDISTVYQIFADEVLGSGQFGIVYGGKHRKTGRDVAIKVIDKMRFPTKQESQLRNEVAILQNLHHPGIVNLECMFETPERVFVVMEKLHGDMLEMILSSEKSRLPERITKFMVTQILVALRNLHFKNIVHCDLKPENVLLASAEPFPQVKLCDFGFARIIGEKSFRRSVVGTPAYLAPEVLRSKGYNRSLDMWSVGVIIYVSLSGTFPFNEDEDINDQIQNAAFMYPPNPWREISGEAIDLINNLLQVKMRKRYSVDKSLSHPWLQDYQTWLDLREFETRIGERYITHESDDARWEIHAYTHNLVYPKHFIMAPNPDDMEEDP
modifications: left off: a dimerising Fc or GST

What follows are molecules tested on kinases of Table 6 on Myelin Basic Protein (MBP) (assay: Kinase assay using MBP substrate, ProQ Diamond stain (Table 6)). Details: kinase printed on MBP-coated slide; 20 uM ATP, 30° C.; ProQ Diamond Microarray Stain; graded Strong/Weak/Negative.
Assay type: biochemical
Procedure, shortened: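 Bovine dephosphorylated MBP coated on aldehyde- or epoxy-glass slides, kinases printed on top; reaction buffer pH 7.5 with 4 mM MgCl2, 20 uM ATP, 5% DMSO, ± inhibitor, at 30° C. Phosphorylation detected by ProQ Diamond stain, 30 min in dark.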

Row | Molecule | MBP Kinase Activity
1 | B1 | Strong
2 | B2 | Strong
3 | B3 | Strong
4 | B4 | Negative
5 | B5 | Weak
6 | B6 | Strong
7 | B7 | Strong
8 | B8 | Weak
